Ends that are not written are not given here.

The target of experiment [1] is D-IZN17 (HIV-1) (UniProt P04578). Kind of experiment: clonal phage binding assay in the presence of 25 µM L-2K-PIE2 competitor.
The target is the same in experiment [2]. As to the kind of experiment: clonal phage binding assay, solution phase, D-IZN17 pulled down on streptavidin beads.

B1: PIE7-φ (peptide)
peptide: GACDYPEWQWLCAA
modifications: not fully specified (C-terminus); cysteine pairing not given here; also: displayed on M13 g3 protein
For B1, the fold binding relative to PIE2-φ in experiment [1] turned out to be 10 fold.

B2: PIE8-φ (peptide)
peptide: GACDYKEWQWLCAA
modifications: not fully specified (C-terminus); cysteine pairing not given here; also: displayed on M13 g3 protein
In the case of B2, the fold binding relative to PIE2-φ in experiment [1] was 2 fold.

B3: PIE2-AAA-φ (peptide)
peptide: GACDYPEWRWLCAAA
As for B3, the fold binding relative to wt PIE2-φ in experiment [1] turned out to be 70 fold.

B4: PIE2-φ (peptide)
peptide: GACDYPEWRWLCAA
modifications: not fully specified (C-terminus); cysteine pairing not given here; also: displayed on M13 g3 protein
As for B4, the fold binding relative to PIE9-φ in experiment [1] worked out at 3 fold. Further, the fold binding relative to PIE1-φ in experiment [2] amounted to 5 fold.
